Measured values reported in article PMC10755698.
Where two headings read alike, the source gives them in different places.

Experiments:
Test in all cases: native MS
[1] = biological target: T1, Lassa virus nucleoprotein NP (wild type) (Lassa virus, AV strain, UniProt Q9DQX7)
[2] = biological target: T1, Lassa virus nucleoprotein NP (wild type); remark: listed apart in the source
[3] = biological target: T1, Lassa virus nucleoprotein NP (wild type); remark: listed apart in the source

Row | Binder | binding result [1] | binding result [2] | also measured
1 | UAGGAAUCU (ssRNA) [9 nt RNA] | binds | – | –
2 | ACCAACACACCAACAACAACCUGUGCG (ssRNA) [27 nt RNA] | – | binds | –
3 | GCCUAGGAUCCACUGUGCGUGUUGU (ssRNA) [25 nt RNA] | – | binds | –
4 | ACACAAAGACCC (ssRNA) [12 nt RNA] | binds | – | –
5 | CGGACACACAAAAAGAAA (ssRNA) [18 nt RNA] | – | – | binding result [3]: binds
